B1: TSLP-7 (VHH)
VHH: EVQLVESGGGLVQPGGSLRLSCAASGLTFGTHVMGWFRQAPGKERELVTAINPAALTTYYADSVKGRFTISADNSKNTAYLQMNSLKPEDTAVYYCARDFWSAGDSWGQGTLVTVSS
notes: VHH-Fc (IgG2 Fc); not shown: IgG2 Fc of the VHH-Fc format
B2: TSLP-30 (VHH)
VHH: EVQLVESGGGLVQPGGSLRLSCAASGRTFSTYGMGWFRQAPGKEREFVAAMISWNGGSSTYYADSVKGRFTISADNSKNTAYLQMNSLKPEDTAVYYCTTDPAEFYDSSTYYPAPFDYWGQGTLVTVSS
notes: as for B1
B3: TSLP-3 (VHH)
VHH: EVQLVESGGGLVQPGGSLRLSCAASGRIFSTYFMGWFRQAPGKERELVSAIFSDGSTYYADSVKGRFTISADNSKNTAYLQMNSLKPEDTAVYYCALDLSTVRWGQGTLVTVSS
notes: as for B1
B4: TSLP-23 (VHH)
VHH: B3 VHH
notes: as for B1
B5: TSLP-14 (VHH)
VHH: B3 VHH with R27S, T31S, F33W, L97K, L99Y, S100F, T101G, V102T, R103G
notes: as for B1
B6: TSLP-35 (VHH)
VHH: B3 VHH with R27C, L99W, S100N, T101L, V102N
notes: as for B1
B7: TSLP-12 (VHH)
VHH: B3 VHH with R27F, T31S, F33W, L97I, L99W, S100Y, T101L, V102N, R103S
notes: as for B1
B8: TSLP-36 (VHH)
VHH: EVQLVESGGGLVQPGGSLRLSCAASGGTLDDYVMGWFRQAPGKEREFVGFIGSDGSTLYADSVKGRFTISADNSKNTAYLQMNSLKPEDTAVYYCTTEWDGYWGQGTLVTVSS
notes: as for B1
B9: TSLP-18 (VHH)
VHH: EVQLVESGGGLVQPGGSLRLSCAASGNIFTRNIMCWFRQAPGKEREGVSCISTGDGSTYYADSVKGRFTISADNSKNTAYLQMNSLKPEDTAVYYCAADSETSGNWVWGQGTLVTVSS
notes: as for B1
B10: TSLP-6 (VHH)
VHH: EVQLVESGGGLVQPGGSLRLSCAASGMTFSSYVMGWFRQAPGKEREFVGEIILSKGFTYYADSVKGRFTISADNSKNTAYLQMNSLKPEDTAVYYCASGPGYYDSSAYYLYAFDIWGQGTLVTVSS
notes: as for B1
B11: TSLP-20 (VHH)
VHH: EVQLVESGGGLVQPGGSLRLSCAASGFKLGYYAMGWFRQAPGKEREGVATIAGGTTYYADSVKGRFTISADNSKNTAYLQMNSLKPEDTAVYYCAAIGWRWGQGTLVTVSS
notes: as for B1
B12: TSLP-32 (VHH)
VHH: EVQLVESGGGLVQPGGSLRLSCAASGNSFNNYVMGWFRQAPGKEREMVSAIFSDGSTYYADSVKGRFTISADNSKNTAYLQMNSLKPEDTAVYYCVRDSGSVSGQTFDSWGQGTLVTVSS
notes: as for B1
B13: TSLP-24 (VHH)
VHH: EVQLVESGGGLVQPGGSLRLSCAASGGIFSINDIGWFRQAPGKEREFVAALSWIIGSGVYTYYADSVKGRFTISADNSKNTAYLQMNSLKPEDTAVYYCANEYGWGQGTLVTVSS
notes: as for B1
B14: TSLP-4 (VHH)
VHH: EVQLVESGGGLVQPGGSLRLSCAASGFTFSSYWMGWFRQAPGKERELVSAIFSDGSTMYADSVKGRFTISADNSKNTAYLQMNSLKPEDTAVYYCTRDSTDTRYWGQGTLVTVSS
notes: as for B1
B15: TSLP-120 (antibody, V domains shown)
VH: QVQLVQSGAEVKKPGSSVKVSCKASGGTFSTYAISWVRQAPGQGLEWMGGIISINYAQKFQGRVTITADESTSTAYMELSSLRSEDTAVYYCAWGAKYALDSWGQGTLVTVSS
VL: DIQMTQSPSSLSASVGDRVTITCRASQTIGTYLNWYQQKPGKAPKLLIYSASSLQSGVPSRFSGSGSGTDFTLTISSLQPEDFATYYCQQTDGNPPTFGQGTKVEIK
B16: TSLP-40 (VHH)
VHH: EVQLVESGGGLVQPGGSLRLSCAASGLTFSRYAMGWFRQAPGKEREFVSAIFSDGSTYYADSVKGRFTISADNSKNTAYLQMNSLKPEDTAVYYCARGPNWFDPWGQGTLVTVSS
notes: as for B1
B17: TSLP-22 (VHH)
VHH: EVQLVESGGGLVQPGGSLRLSCAASGRTFRSYVMGWFRQAPGKERELVSAIFSDGSTLYADSVKGRFTISADNSKNTAYLQMNSLKPEDTAVYYCAREDSSSGWFDYWGQGTLVTVSS
notes: as for B1
B18: TSLP-26 (VHH)
VHH: B17 VHH with R27L, R30S, V33I, E98D, S100Y, S101G, S102G, G103N, W104F
notes: as for B1
B19: TSLP-21 (VHH)
VHH: B17 VHH with R27N, T28I, R30S, S31R, V33I, R97K, E98G, D99G, S100Y
notes: as for B1
B20: TSLP-41 (VHH)
VHH: EVQLVESGGGLVQPGGSLRLSCAASGRTFSAHSVYTMGWFRQAPGKEREWVSAIFSDGDTYYADSVKGRFTISADNSKNTAYLQMNSLKPEDTAVYYCAIDEGMDYDGNFYDWGQGTLVTVSS
notes: as for B1
B21: TSLP-38 (VHH)
VHH: EVQLVESGGGLVQPGGSLRLSCAASGFSLDYYAMGWFRQAPGKERELVSAIFSDGSALYADSVKGRFTISADNSKNTAYLQMNSLKPEDTAVYYCAKDRDTGIGAYDWGQGTLVTVSS
notes: as for B1
B22: TSLP-11 (VHH)
VHH: EVQLVESGGGLVQPGGSLRLSCAASGFTFDDSDMGWFRQAPGKEREFVGAISWSGDSTYYKYYADSVKGRFTISADNSKNTAYLQMNSLKPEDTAVYYCANQYGWGQGTLVTVSS
notes: as for B1

The results in this text go back to US20230265179A1 (TWIST BIOSCIENCE, published 2023).

Residue numbers refer to the chain shown, from its start.

The first assay deals with T1, TSLP (UniProt Q969D9 29-159).
T1 construct: Soluble analyte of the SPR assay
As to the kind of experiment: SPR, Carterra LSA, antibody amine-coupled, 1:1 model. A general note: SPR reads the build-up and loss of mass on a sensor chip optically.
Procedure: SPR experiments were performed on a Carterra LSA SPR biosensor equipped with a HC30M chip at 25° C. in HBS-TE. Antibodies were diluted to 10 μg/mL and amine-coupled to the sensor chip by EDC/NHS activation, followed by ethanolamine HCl quenching. Increasing concentrations of analyte were flowed over the sensor chip in HBS-TE with 0.5 mg/mL BSA with 5-minute association and 15-minute dissociation. Following each injection cycle the surface was regenerated with 2× 30-second injections of IgG elution buffer (Thermo). Data were analyzed in Carterra's Kinetics Tool software with 1:1 binding model.
In general, Kd refers to the free concentration of one partner at which half of the binding sites on the other are occupied at equilibrium, for simple one-to-one binding. A lower Kd goes with a tighter complex. A word on the koff: it is a measure of how fast the partners let go of each other. A word on the kon: it is the second-order rate constant of association. Read a high kon as fast association. The molecule B1 displayed a dissociation constant (Kd) of 5.12 nM, an off-rate constant (koff) of 0.000351 s⁻¹ and an on-rate (kon) of 68500 M⁻¹ s⁻¹.

Regarding B2, the equilibrium dissociation constant (Kd) amounted to 63.2 nM, the koff is 0.000996 s⁻¹ and the kon worked out at 15800 M⁻¹ s⁻¹.

B3 displayed a Kd of 19.1 nM, a koff of 0.00114 s⁻¹ and a kon of 59900 M⁻¹ s⁻¹.

B4 showed a Kd of 19.1 nM, a koff of 0.00131 s⁻¹ and a kon of 68500 M⁻¹ s⁻¹.

On to B5, for which the Kd amounted to 31.4 nM, the koff was found to be 0.0016 s⁻¹ and the on-rate (kon) came to 51000 M⁻¹ s⁻¹.

For B6, the affinity, expressed as Kd, was 20 nM; the dissociation rate constant (koff) worked out at 0.00145 s⁻¹; the kon was 72600 M⁻¹ s⁻¹.

B7 displayed a Kd of 13.9 nM, a koff of 0.00137 s⁻¹ and a kon of 98700 M⁻¹ s⁻¹.

In the case of B8, the Kd is 3.39 nM, the koff was 0.000487 s⁻¹ and the on-rate constant (kon) worked out at 144000 M⁻¹ s⁻¹.

The molecule B9 displayed a Kd of 22.3 nM, a koff of 0.00178 s⁻¹ and an on-rate constant (kon) of 79700 M⁻¹ s⁻¹.

B10 returned a Kd of 19.4 nM, a koff of 0.000672 s⁻¹ and a kon of 34700 M⁻¹ s⁻¹.

The molecule B11 displayed a Kd of 27.7 nM, a koff of 0.00209 s⁻¹ and an association rate constant (kon) of 75300 M⁻¹ s⁻¹.

B12 showed a Kd of 7.24 nM, a koff of 0.00121 s⁻¹ and a kon of 167000 M⁻¹ s⁻¹.

Consider B13, for which the affinity, expressed as Kd, was 10.2 nM; the off-rate (koff) came out at 0.000445 s⁻¹; the kon turned out to be 43600 M⁻¹ s⁻¹.

For B14, the Kd worked out at 7.14 nM, the off-rate constant (koff) is 0.000542 s⁻¹ and the kon amounted to 75900 M⁻¹ s⁻¹.

With B15, the dissociation constant (Kd) is 0.223 nM, the off-rate constant (koff) was determined as 0.000181 s⁻¹ and the on-rate (kon) came out at 809000 M⁻¹ s⁻¹.

As to B16, the Kd turned out to be 19.3 nM, the koff was determined as 0.000493 s⁻¹ and the association rate constant (kon) worked out at 25600 M⁻¹ s⁻¹.

Turning to B17, binding was characterised by a dissociation constant (Kd) of 12.1 nM, the off-rate constant (koff) turned out to be 0.00106 s⁻¹ and the on-rate constant (kon) is 88200 M⁻¹ s⁻¹.

In the case of B18, the Kd is 5.09 nM, the koff was 0.000228 s⁻¹ and the association rate constant (kon) was determined as 44700 M⁻¹ s⁻¹.

In turn, B19 gave a Kd of 10.6 nM, a koff of 0.00113 s⁻¹ and a kon of 106000 M⁻¹ s⁻¹.

B20 displayed a Kd of 10.8 nM, an off-rate constant (koff) of 0.00177 s⁻¹ and a kon of 164000 M⁻¹ s⁻¹.

B21: the Kd came out at 10.1 nM, the off-rate (koff) amounted to 0.000487 s⁻¹ and the on-rate (kon) amounted to 48300 M⁻¹ s⁻¹.

As to B22, the Kd came out at 9.67 nM, the off-rate constant (koff) came out at 0.000433 s⁻¹ and the kon came to 44700 M⁻¹ s⁻¹.

In the next assay the target is T2, TSLP on over-expressing Expi293 cells (UniProt Q969D9 29-159, limits assumed).
T2 construct: whole, on cells; Target of the flow cytometry assay; also called cytokine over-expressing Expi293 cells
Briefly: flow cytometry titration on TSLP over-expressing Expi293 cells. On the technique in general: Flow cytometry measures light scatter and fluorescence of single cells or particles in a stream.
Procedure: (§1) All incubations and washes were in buffer containing PBS+1% BSA. MFI Ratio is defined by the mean fluorescence intensity (MFI) of the cytokine over-expressing Expi293 cell over the Expi293 parent cell. […] EC50 was calculated in GraphPad Prism.
The EC50 is the concentration at which the effect is half-maximal. Low readings indicate a more potent agent, high ones a less potent agent. B2: the EC50 was 0.43 nM. This counts as sub-nanomolar.

Turning to B3, the EC50 was 0.37 nM.

As for B4, the EC50 was found to be 0.12 nM.

With B5, a half-maximal effect (EC50) was put at 0.18 nM. This EC50 is about 1.5-fold higher than that of the molecule before.

In turn, B6 came in with a 50% effective concentration (EC50) of 0.28 nM.

In the case of B7, the EC50 turned out to be 0.5 nM.

B8 returned an EC50 of 0.11 nM.

The molecule B12 returned an EC50 of 0.45 nM.

With B14, the EC50 was determined as 0.18 nM.

Consider B16, for which the 50% effective concentration (EC50) was 0.14 nM. This EC50 and that of the molecule before are within 1.5-fold of each other.

Molecule B17 returned a half-maximal effective concentration (EC50) of 0.66 nM. Compared with the last molecule, the EC50 is about 4.7-fold higher.

For the molecule B18, the midpoint of the response, the EC50, lay at 3.37 nM.

B21 displayed an EC50 of 0.31 nM.

The next assay addresses T2, TSLP on over-expressing Expi293 cells. Briefly: flow cytometry, 100 nM, TSLP over-expressing Expi293 over parent cells.
Procedure: as §1
With B1, the “100 nM (MFI Ratio)” value came out at 1.6 MFI ratio.

Take B2: the “100 nM (MFI Ratio)” value came out at 105 MFI ratio.

Take B3: the “100 nM (MFI Ratio)” value is 80.1 MFI ratio.

For B4, the “100 nM (MFI Ratio)” value amounted to 226 MFI ratio.

B5: the “100 nM (MFI Ratio)” value amounted to 20.3 MFI ratio.

Regarding B6, the “100 nM (MFI Ratio)” value was determined as 108 MFI ratio.

With B7, the “100 nM (MFI Ratio)” value came to 76.2 MFI ratio.

As for B8, the “100 nM (MFI Ratio)” value was 100 MFI ratio.

Take B9: the “100 nM (MFI Ratio)” value was 5.1 MFI ratio.

For B10, the “100 nM (MFI Ratio)” value is 178 MFI ratio.

For the molecule B11, the “100 nM (MFI Ratio)” value worked out at 2.5 MFI ratio.

With B12, the “100 nM (MFI Ratio)” value came to 195 MFI ratio.

For B13, the “100 nM (MFI Ratio)” value came to 1.3 MFI ratio.

In the case of B14, the “100 nM (MFI Ratio)” value amounted to 157 MFI ratio.

With B15, the “100 nM (MFI Ratio)” value came to 21.2 MFI ratio.

Regarding B16, the “100 nM (MFI Ratio)” value stood at 288 MFI ratio.

Regarding B17, the “100 nM (MFI Ratio)” value was 90.4 MFI ratio.

For B18, the “100 nM (MFI Ratio)” value was 313 MFI ratio.

As to B19, the “100 nM (MFI Ratio)” value was found to be 0.7 MFI ratio.

Consider B20, for which the “100 nM (MFI Ratio)” value turned out to be 12.3 MFI ratio.

In the case of B21, the “100 nM (MFI Ratio)” value came to 89.3 MFI ratio.

For the molecule B22, the “100 nM (MFI Ratio)” value came to 157 MFI ratio.
